Experimental data: IntAct's records for PubMed 23804756

B1: MIF4G domain-containing protein (Homo sapiens), A9UHW6 (parent)
chain: MGEPSREEYKIQSFDAETQQLLKTALKDPGAVDLEKVANVIVDHSLQDCVFSKEAGRMCYAIIQAESKQAGQSVFRRGLLNRLQQEYQAREQLRARSLQGWVCYVTFICNIFDYLRVNNMPMMALVNPVYDCLFRLAQPDSLSKEEEVDCLVLQLHRVGEQLEKMNGQRMDELFVLIRDGFLLPTGLSSLAQLLLLEIIEFRAAGWKTTPAAHKYYYSEVSD

Variants of: B1
Settings: with slbp_human SLBP

Variant | effect of a mutation on the interaction
MGEPSREEYKIQSFDAETQQLLKTALKDPGAVDLEKVANVIVDHSLQDCVFSKEAGRMCYAIIQAESKQAGQSVFRAGLLARLAQEYQAREQLRARSLQGWVCYVTFICNIFDYLRVNNMPMMALVNPVYDCLFRLAQPDSLSKEEEVDCLVLQLHRVGEQLEKMNGQRMDELFVLIRDGFLLPTGLSSLAQLLLLEIIEFRAAGWKTTPAAHKYYYSEVSD [R77A;N81A;Q84A] | decreasing interaction strength
